For three substances, ELISA specific binding (OD 450, binding to BSA subtracted) results are on record in PMC548802.

Test [1] has as its target tetranectin with substitution of threonine 149 with tyrosine (TN^T149Y) (human) (UniProt P05452). Description: ELISA.
Test [2] has as its target tetranectin in which lysine 148 was replaced with alanine (TN^K148A) (human) (UniProt P05452). Description: ELISA.

The substance human plasminogen (natural protein) displayed an ELISA specific binding (OD 450, binding to BSA subtracted) in test [1] of 1.73 OD 450.
In test [1], “recombinant human angiostatin containing kringle domains 1-3 (AST^K1-3) (domain or fragment)” came in with an ELISA specific binding (OD 450, binding to BSA subtracted) of 0.43 OD 450.
Turning to “recombinant human angiostatin containing kringle domains 1-4 (AST^K1-4) (domain or fragment)”, the ELISA specific binding (OD 450, binding to BSA subtracted) in test [2] was 0.06 OD 450; in test [1], 1.83 OD 450.
